Test results as given in US20190145976A1 (GOVERNING COUNCIL OF THE UNIVERSITY OF TORONTO, published 2019).

T1: recombinant soluble human αKlotho (human, UniProt Q9UEF7 34-981)
T1 construct: extracellular domain; Bought (R&D Systems); also called Hu aKL; soluble human αKlotho ectodomain
T1 sequence (looked up): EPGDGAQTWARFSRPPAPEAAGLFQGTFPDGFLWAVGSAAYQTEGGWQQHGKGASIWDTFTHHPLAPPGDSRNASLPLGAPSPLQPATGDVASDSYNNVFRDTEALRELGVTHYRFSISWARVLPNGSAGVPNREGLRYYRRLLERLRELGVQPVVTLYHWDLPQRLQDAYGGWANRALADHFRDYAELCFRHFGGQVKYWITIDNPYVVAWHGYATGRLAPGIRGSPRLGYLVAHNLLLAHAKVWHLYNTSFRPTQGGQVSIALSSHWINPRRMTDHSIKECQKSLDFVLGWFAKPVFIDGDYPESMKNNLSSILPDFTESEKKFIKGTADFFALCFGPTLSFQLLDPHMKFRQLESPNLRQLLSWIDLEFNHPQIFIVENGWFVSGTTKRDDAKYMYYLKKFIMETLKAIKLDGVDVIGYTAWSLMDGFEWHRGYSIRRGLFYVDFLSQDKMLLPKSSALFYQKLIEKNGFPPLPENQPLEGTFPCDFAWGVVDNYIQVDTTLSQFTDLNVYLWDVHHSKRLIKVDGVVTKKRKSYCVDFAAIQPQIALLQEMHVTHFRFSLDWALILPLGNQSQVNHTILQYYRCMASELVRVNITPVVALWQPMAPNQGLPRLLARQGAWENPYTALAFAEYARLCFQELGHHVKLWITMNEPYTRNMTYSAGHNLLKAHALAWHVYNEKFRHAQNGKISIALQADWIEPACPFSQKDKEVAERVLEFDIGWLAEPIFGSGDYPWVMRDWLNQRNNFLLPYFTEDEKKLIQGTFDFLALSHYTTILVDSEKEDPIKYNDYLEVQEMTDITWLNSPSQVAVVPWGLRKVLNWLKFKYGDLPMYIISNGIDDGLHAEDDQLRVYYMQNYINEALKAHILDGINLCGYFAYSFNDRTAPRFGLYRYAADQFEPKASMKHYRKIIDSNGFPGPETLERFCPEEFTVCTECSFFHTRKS

T2: ligand-binding domain of human FGFR1c (D142 to R365) (human, UniProt P11362 142-365)
T2 construct: range 142-365; also called FGFR1c alone
T2 sequence (looked up): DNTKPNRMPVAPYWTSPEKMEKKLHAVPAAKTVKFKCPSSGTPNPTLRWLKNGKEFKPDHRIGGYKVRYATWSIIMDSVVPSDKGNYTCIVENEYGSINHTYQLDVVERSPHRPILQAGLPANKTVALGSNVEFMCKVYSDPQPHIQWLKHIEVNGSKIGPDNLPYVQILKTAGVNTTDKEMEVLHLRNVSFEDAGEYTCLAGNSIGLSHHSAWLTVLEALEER

T3: native rat αKlotho in tissue and NRK cells (rat, UniProt Q9Z2Y9 35-1014)
T3 construct: also called αKlotho of rat parathyroid tissue; native αKlotho of NRK cells
T3 sequence (looked up): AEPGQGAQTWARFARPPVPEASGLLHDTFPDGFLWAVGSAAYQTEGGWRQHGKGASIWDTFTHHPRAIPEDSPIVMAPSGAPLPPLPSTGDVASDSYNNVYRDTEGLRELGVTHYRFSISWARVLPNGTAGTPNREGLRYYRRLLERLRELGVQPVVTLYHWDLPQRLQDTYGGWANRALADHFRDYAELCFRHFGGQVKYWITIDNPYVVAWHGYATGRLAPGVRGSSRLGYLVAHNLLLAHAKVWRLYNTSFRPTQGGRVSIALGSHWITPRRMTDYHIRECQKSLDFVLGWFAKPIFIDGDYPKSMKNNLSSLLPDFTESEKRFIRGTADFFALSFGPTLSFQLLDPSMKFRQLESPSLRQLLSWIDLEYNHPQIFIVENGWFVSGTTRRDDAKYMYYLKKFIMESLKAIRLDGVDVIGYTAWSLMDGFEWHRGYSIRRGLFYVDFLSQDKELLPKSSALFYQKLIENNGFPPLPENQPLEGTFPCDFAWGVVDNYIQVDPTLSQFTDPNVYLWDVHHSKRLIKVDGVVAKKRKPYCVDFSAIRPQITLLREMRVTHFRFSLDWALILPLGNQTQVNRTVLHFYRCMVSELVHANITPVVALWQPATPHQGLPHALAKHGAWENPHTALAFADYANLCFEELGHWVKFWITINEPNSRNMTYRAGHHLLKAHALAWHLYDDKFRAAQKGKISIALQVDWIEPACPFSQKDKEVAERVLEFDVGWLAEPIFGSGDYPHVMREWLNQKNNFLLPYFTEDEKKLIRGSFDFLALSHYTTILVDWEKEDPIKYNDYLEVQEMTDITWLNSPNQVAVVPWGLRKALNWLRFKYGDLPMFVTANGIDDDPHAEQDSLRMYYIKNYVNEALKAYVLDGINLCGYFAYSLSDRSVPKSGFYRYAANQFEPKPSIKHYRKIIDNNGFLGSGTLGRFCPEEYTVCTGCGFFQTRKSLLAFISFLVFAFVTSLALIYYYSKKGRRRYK

B1: sb106 Fab-phage (Fab, V domains shown)
VH: EVQLVESGGGLVQPGGSLRLSCAASGFNISYYSIHWVRQAPGKGLEWVAYISPSYGYTSYADSVKGRFTISADTSKNTAYLQMNSLRAEDTAVYYCARYYVYASHGWAGYGMDYWGQGTLVTVSS
VL: DIQMTQSPSSLSASVGDRVTITCRASQSVSSAVAWYQQKPGKAPKLLIYSASSLYSGVPSRFSGSRSGTDFTLTISSLQPEDFATYYCQQAGYSPITFGQGTKVEIKR
notes: also called sb106-phage; Sb106-phage
B2: sb106-IgG (antibody, V domains shown)
VH: B1 VH
VL: B1 VL

Legend:
[1] = target: T1, recombinant soluble human αKlotho; assay: competitive Fab-phage ELISA with soluble human αKlotho as competitor (FIG. 1C)
Experimental: (§1) (B) Specificity determination of anti-αKlotho sb106 by Fab-phage ELISA: sb106 Fab-phage were incubated with the following immobilized antigens: a complex of FGFR1c/αKlotho complex (aKL-R1), FGFR1c alone (R1), human αKlotho (Hu aKL) and mouse αKlotho (Mu aKL), or neutravidin (NA) and bovine serum albumin (BSA) as negative controls. After washing off unbound phage, bound phages were detected using an HRP-conjugated anti-phage antibody. Colorimetric HRP reagents allow for absorbance readings at 450 nm. […] The binding signals to immobilized human αKlotho reported are an average of two data sets.
(§2) Binding selections, phage ELISAs and Fab protein purification were performed as described. Briefly, phage from library F were cycled through rounds of panning with the binary complex of αKlotho extracellular domain and FGFR1c ligand-binding domain on 96-well Maxisorp Immunoplates (Fisher Scientific, Nepean, ON, Canada) as the capture target. After 5 rounds of selection, phage were produced from individual clones grown in a 96-well format and phage ELISAs were performed to detect specific binding clones. […] A competitive binding ELISA was performed by pre-incubating sb106-phage with serial dilutions of soluble human αKlotho (50-0.0005 nM×1 hour) prior to binding to an ELISA plate coated with human αKlotho. […]

[2] = target: T2, ligand-binding domain of human FGFR1c …; assay: Fab-phage ELISA on immobilised antigen, HRP-conjugated anti-phage antibody, absorbance at 450 nm
Experimental: as §1
(§3) Binding selections, phage ELISAs and Fab protein purification were performed as described. Briefly, phage from library F were cycled through rounds of panning with the binary complex of αKlotho extracellular domain and FGFR1c ligand-binding domain on 96-well Maxisorp Immunoplates (Fisher Scientific, Nepean, ON, Canada) as the capture target. After 5 rounds of selection, phage were produced from individual clones grown in a 96-well format and phage ELISAs were performed to detect specific binding clones. […] A competitive binding ELISA was performed by pre-incubating sb106-phage with serial dilutions of soluble human αKlotho (50-0.0005 nM×1 hour) prior to binding to an ELISA plate coated with human αKlotho. […] Fab and IgG proteins were affinity-purified on Protein A affinity columns (GE Healthcare, Mississauga, ON, Canada).

[3] = target: T4, neutravidin (UniProt P02701 25-152); assay: as above
T4 construct: Negative control in the phage ELISA; also called NA; NAV
Experimental: as §1, §3

[4] = target: T5, bovine serum albumin (bovine, UniProt P02769 25-607); assay: as above
T5 construct: Negative control in the phage ELISA; also called BSA
Experimental: as §1, §3

[5] = target: T1, recombinant soluble human αKlotho; assay: competitive Fab-phage ELISA: sb106-phage pre-incubated with soluble human αKlotho (50-0.0005 nM), then bound to plate-coated human αKlotho; competitive Fab-phage ELISA; soluble human αKlotho as competitor
Experimental: as §1, §2

[6] = target: T3, native rat αKlotho in tissue and NRK …; assay: immunohistochemistry on freshly frozen unfixed rat parathyroid sections; freshly frozen unfixed rat parathyroid tissue (native fold)
Experimental: For labeling, sections were blocked (PBS, 1.5% BSA, 10% goat serum; 40 min) and incubated with the primary antibody sb106 ([…] in blocking solution; 4° C. overnight). After washing (PBS), sections were incubated with the Alexa 546 goat anti-human IgG (1:800 dilution, Invitrogen) for 1 hour at room temperature. After additional washes with PBS, the sections were fixed with 4% paraformaldehyde in PBS, washed with PBS, and mounted and visualized with a Zeiss LSM510 microscope.
Sb106 was highly reactive against αKlotho under native conditions. Immunoblot signals under denaturing conditions against mouse, rat, and human kidney tissue were weak, but in samples from transgenic mice overexpressing αKlotho[79], sb106-Fab detected a band corresponding to the full-length extracellular domain of αKlotho (FIG. 2A). In cultured cells, sb106-Fab was not able to detect αKlotho in immunoblots under denaturing conditions with lysates from NRK cells expressing native αKlotho but it was able to detect overexpressed antigen in cell lysates from HEK293 cells transfected with αKlotho (FIG. 2B). […] Cells were then incubated with sb106-Fab ([…] in 1% BSA in PBS) for 1 hr. Cells were washed 5 times with cold PBS (2 min each) and then incubated with anti-FLAG-Alexa488 (the C-terminus of the Fab light chain contains a Flag epitope tag) (1:400 in 1% BSA in PBS) for 1 hr, while being protected from light. […]

T4 sequence (P02701 25-152): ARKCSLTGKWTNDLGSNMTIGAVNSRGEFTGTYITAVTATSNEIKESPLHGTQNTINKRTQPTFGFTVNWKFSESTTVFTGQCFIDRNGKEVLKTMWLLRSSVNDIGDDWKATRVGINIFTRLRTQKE
T5 sequence (P02769 25-607 limits assumed): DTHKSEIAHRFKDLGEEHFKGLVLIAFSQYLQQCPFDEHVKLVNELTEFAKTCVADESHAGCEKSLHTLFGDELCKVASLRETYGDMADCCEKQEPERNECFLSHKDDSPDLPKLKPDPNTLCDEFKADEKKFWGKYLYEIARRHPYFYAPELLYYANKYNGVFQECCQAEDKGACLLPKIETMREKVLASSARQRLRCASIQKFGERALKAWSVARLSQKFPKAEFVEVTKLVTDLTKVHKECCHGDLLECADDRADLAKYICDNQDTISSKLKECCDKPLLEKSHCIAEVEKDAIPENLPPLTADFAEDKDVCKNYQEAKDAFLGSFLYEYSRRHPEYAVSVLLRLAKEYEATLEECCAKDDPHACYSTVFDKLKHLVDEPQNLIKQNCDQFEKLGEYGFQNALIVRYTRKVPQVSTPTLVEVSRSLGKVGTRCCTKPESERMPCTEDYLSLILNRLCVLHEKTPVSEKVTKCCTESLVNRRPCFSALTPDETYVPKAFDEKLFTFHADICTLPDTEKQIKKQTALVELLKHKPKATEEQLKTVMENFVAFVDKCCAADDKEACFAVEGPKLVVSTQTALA

Binder	Kd [1]	binding result [2]	binding result [3]	binding result [4]	IC50 [5]	binding result [6]
B1	1 to 2 nM	no binding	no binding	no binding	1.7 nM	
B2						binds
